Reference: US20260209363A1 (Chugai, published 2026)
Blank lines part the entries; values can stand above or below the binder they belong to.

What was measured:
human soluble IL-6R [1] = target: T1, human soluble IL-6R (human, UniProt P08887 20-357, limits assumed); test: SPR (Biacore T200), antibody captured on Protein G, human IL-6R as analyte, 37 degrees C, no albumin
T1 construct: Soluble form; also called sIL6R; Human IL-6R
T1 sequence (looked up): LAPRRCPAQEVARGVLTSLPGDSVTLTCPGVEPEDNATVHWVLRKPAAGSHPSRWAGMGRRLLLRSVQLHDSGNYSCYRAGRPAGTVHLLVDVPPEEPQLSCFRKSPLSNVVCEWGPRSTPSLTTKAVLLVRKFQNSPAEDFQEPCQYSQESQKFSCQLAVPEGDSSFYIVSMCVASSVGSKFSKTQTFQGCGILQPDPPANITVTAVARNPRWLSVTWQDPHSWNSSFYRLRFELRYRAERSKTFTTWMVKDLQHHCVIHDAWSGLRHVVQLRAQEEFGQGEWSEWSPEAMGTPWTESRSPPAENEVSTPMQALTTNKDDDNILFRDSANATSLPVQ
Protocol: Binding activities of the produced albumin switch molecules against human IL-6R were evaluated using Biacore T200 (Cytiva). As the running buffer, 50 mM Na Phosphate (pH 7.4), 150 mM NaCl, 0.05% Tween20 was used, and the evaluation was performed at 37 degrees C. First, Protein G (CALBIOCHEM) was used as a ligand-capturing molecule. Protein G (CALBIOCHEM) was solid-phased on a Series S Sensor Chip CM4 (Cytiva) using an Amine Coupling Kit (Cytiva). Antibody solution prepared using the running buffer was allowed to interact with this CM4 sensor chip to capture approximately 200 RU of the antibody. Human IL-6R used in the present measurement was prepared by an approach described in WO2018097307 (Example 3-2). Human IL-6R was diluted to 0, 100, and 400 nM with the running buffer, and allowed to bind to the captured antibody. The chip was regenerated using 3 M MgCl₂, and measurements were performed by repeatedly capturing the antibodies. Dissociation constant (KD) of each antibody for human IL-6R was calculated using Biacore T200 Evaluation Software 2.0. Specifically, the association rate constant ka (L/mol/s) and the dissociation rate constant kd (1/s) were calculated by global fitting of the sensorgrams obtained by measurement with the 1:1 Langmuir binding model, and the dissociation constant KD (mol/L) was calculated from these values.

human soluble IL-6R [2] = target: T1, human soluble IL-6R; test: in vivo KD in mouse plasma (albumin present), from total antibody, free and bound sIL6R 5 min after sIL6R; antibody 1 mg/kg IV
Protocol: Next, free sIL6R in plasma was measured. The concentration of free sIL6R in plasma was measured on a fully automated ELISA system (Gyrolab xP workstation). First, sIL6R prepared at 23.4, 46.9, 93.8, 188, 375, 750, and 1500 ng/mL using a Protein-Free (PBS) Blocking Buffer (Thermo Scientific) was used as solutions for preparing the calibration curve. Mouse plasma samples were used in the measurements without diluting them. A solution of biotin-labeled H54 diluted to 10 micro g/mL using a Protein-Free (PBS) Blocking Buffer was used as a solution of the sIL6R-capturing molecule. Alexa Fluor (registered trademark) 647-labeled anti-human IL-6R antibody (R&D Systems) diluted to 1 micro g/mL using a Protein-Free (PBS) Blocking Buffer was used as a solution of the human IL-6R-detection molecule. PBS (pH 7.4) containing 0.05% TWEEN was used as a washing solution. The calibration curve solutions, mouse plasma samples, sIL6R-capturing molecule solution, sIL6R-detection molecule solution, and the washing solution were placed onto a PCR plate, and then the PCR plate was sealed with a plate sealer. After the PCR plate and the Bioaffy 200 disc were placed in the Gyrolab xP workstation, measurements were taken. Using the data processed by the Gyros Evaluater 3.6.2.30 software and the calibration curve concentrations, the concentration of free sIL6R in plasma was calculated by logistic regression using the XLfit 5.5.0.5 software.
Additionally, bound sIL6R in plasma was measured. The concentration of bound sIL6R in plasma was measured on an electrospray ionization mass spectrometer connected to a high-performance liquid chromatography (LC/ESI-MS/MS). First, H54//IC17 and sIL6R were mixed, and solutions for preparing the calibration curve of bound sIL6R were prepared at theoretical plasma concentrations of 0.0468, 0.467, 4.60, and 20.1 nmol/mL. The solutions for preparing the calibration curve and 1 or 2 micro L of a plasma sample were added to 75 or 150 micro g of magnetic beads (Magnosphere MS300/Carboxyl, JSR) to which anti-delta GK antibodies were solid-phased, and this was shaken at 25 degrees C. for one hour.

Mouse MOG (R&D system) = target: T2, Mouse MOG (R&D system) (mouse, UniProt Q61885 29-156, limits assumed); test: SPR (Biacore T200), antibody captured by anti-human Fc antibody, mouse MOG as analyte, 25 degrees C, no albumin
T2 construct: also called mouse soluble MOG; soluble MOG
T2 sequence (looked up): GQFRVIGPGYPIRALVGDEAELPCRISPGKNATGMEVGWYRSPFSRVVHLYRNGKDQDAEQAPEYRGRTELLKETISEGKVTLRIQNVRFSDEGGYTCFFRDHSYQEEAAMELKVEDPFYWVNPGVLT
Protocol: Binding activities of the antibodies produced in Example 10 against mouse MOG were assessed using Biacore T200 (Cytiva).
As the running buffer, 50 mM Na Phosphate (pH 7.4), 150 mM NaCl, 0.05% Tween 20, and 0.005% NaN₃ was used, and the assessment was performed at 25 degrees C. First, anti-human Fc antibody (Cytiva) was used as a ligand-capturing molecule. Anti-human Fc antibody (Cytiva) was solid-phased on a Series S Sensor Chip CM4 (Cytiva) using an Amine Coupling Kit (Cytiva). Antibody solutions prepared using the running buffer was allowed to interact with this CM4 sensor chip to capture approximately 480 RU of the antibody. Mouse MOG (R&D system) was diluted to 0, 10, 40, 160, and 640 nM with the running buffer, and then bound to the captured antibody. The chip was regenerated using 3 M MgCl₂, and measurements were performed by repeatedly capturing antibodies. Dissociation constant (KD) of the respective antibodies for mouse MOG was calculated using Biacore T200 Evaluation Software 2.0. Specifically, the association rate constant ka (L/mol/s) and the dissociation rate constant kd (1/s) were calculated by global fitting of the sensorgrams obtained by measurement with the 1:1 Langmuir binding model, and the dissociation constant KD (mol/L) was calculated from these values.

mouse albumin = target: T3, mouse albumin (mouse, UniProt P07724 25-608); test: SPR (Biacore T200), antibody captured by anti-human Fc antibody, mouse albumin as analyte, 25 degrees C
T3 construct: also called recombinant mouse Albumin; mouse serum albumin
Protocol: Binding activities of the produced antibodies against mouse albumin were evaluated using Biacore T200 (Cytiva).
As the running buffer, 50 mM Na Phosphate (pH 7.4), 150 mM NaCl, 0.05% Tween20 was used, and the evaluation was performed at 25 degrees C. First, anti-human Fc antibody (Cytiva) was used as a ligand-capturing molecule. Anti-human Fc antibody (Cytiva) was solid-phased on a Series S Sensor Chip CM4 (Cytiva) using an Amine Coupling Kit (Cytiva). Antibody solution prepared using the running buffer was allowed to interact with this CM4 sensor chip to capture approximately 120 RU of the antibody. Mouse albumin (Bioscience) was diluted to 0 and 300 nM with the running buffer and allowed to bind to the captured antibody. The chip was regenerated using 3 M MgCl₂, and measurements were performed by repeatedly capturing the antibodies. Dissociation constant (KD) of each antibody for mouse albumin was calculated using Biacore T200 Evaluation Software 2.0. Specifically, the association rate constant ka (L/mol/s) and the dissociation rate constant kd (1/s) were calculated by global fitting of the sensorgrams obtained by measurement with the 1:1 Langmuir binding model, and the dissociation constant KD (mol/L) was calculated from these values.

Kd (human soluble IL-6R [1]): 3.41 nM | koff (human soluble IL-6R [1]): 0.00141 s⁻¹ | kon (human soluble IL-6R [1]): 412000 M⁻¹ s⁻¹ | Kd (human soluble IL-6R [2]): 1.3 nM
B1: H54//IC17 (bispecific antibody, human IgG1, kappa)
heavy 1: QVQLQESGPGLVKPSETLSLTCAVSGYSISDDQAWSWVRQPPGEGLEWIGYISYSGITNYNPSLKGRVTISRDTSKNQFSLKLSSVTAADTAAYYCARSLARTTAMDYWGEGTLVTVSSASTKGPSVFPLAPSSKSTSGGTAALGCLVEDYFPEPVTVSWNSGALTSGVHTFPAVLQSSGLYSLSSVVTVPSSSLGTQTYICNVNHKPSNTKVDERVEPKSCDKTHTCPPCPAPELRRGPSVFLFPPKPKDTLMISRTPEVTCVVVDVSHEDPEVKFNWYVDGVEVHNAKTKPREEQYNSTYRVVSVLTVLHQDWLNGKEYKCKVSNKALPAPIEKTISKAKGQPREPQVCTLPPSREEMTKNQVSLSCAVKGFYPSDIAVEWESNGQPENNYKTTPPVLDSDGSFFLVSKLTVDKSRWQQGNVFSCSVMHEALHNHYTQKSLSLSP
light 1: DIQMTQSPSSLSASVGDSVTITCQASQDISSYLNWYQQKPGKAPELLIYYGSELHSGVPSRFSGSGSGTDFTFTISSLEAEDAATYYCQQGNSLPYTFGQGTKVEIERTVAAPSVFIFPPSDRKLKSGTASVVCLLNNFYPREAKVQWKVDNALQSGNSQESVTEQDSKDSTYSLSSTLTLSKADYEKHKVYACEVTHQGLSSPVTKSFNRGEC
heavy 2: not shown
light 2: QVQLQQSGPQLVRPGASVKISCKASGYSFTSYWMHWVNQRPGQGLEWIGMIDPSYSETRLNQKFKDKATLTVDKSSSTAYMQLSSPTSEDSAVYYCALYGNYFDYWGQGTTLTVSSASVAAPSVFIFPPSDEQLKSGTASVVCLLNNFYPREAKVQWKVDNALQSGNSQESVTEQDSKDSTYSLSSTLTLSKADYEKHKVYACEVTHQGLSSPVTKSFNRGEC
notes: Heavy chain constant regions lack the C-terminal glycine and lysine; also called anti-human IL-6R/KLH bispecific antibody

Kd (Mouse MOG (R&D system)): 0.452 nM | koff (Mouse MOG (R&D system)): 6.99e-05 s⁻¹ | kon (Mouse MOG (R&D system)): 155000 M⁻¹ s⁻¹
B2: MOG//IC17 (bispecific antibody, human IgG1, kappa)
heavy 1: RVTLRESGPTLVKPTQTLTLTCTFSGFSLSTSGVGVGWIRQPPGKALEWLALIFWDDDSHYSPSLKSRLTITKDTSKNQVVLTMTNMDPVDTATYYCARYYFGSGSYFPSYWYFDLWGRGTLVTVSSASTKGPSVFPLAPSSKSTSGGTAALGCLVEDYFPEPVTVSWNSGALTSGVHTFPAVLQSSGLYSLSSVVTVPSSSLGTQTYICNVNHKPSNTKVDERVEPKSCDKTHTCPPCPAPELRRGPSVFLFPPKPKDTLMISRTPEVTCVVVDVSHEDPEVKFNWYVDGVEVHNAKTKPREEQYNSTYRVVSVLTVLHQDWLNGKEYKCKVSNKALPAPIEKTISKAKGQPREPQVCTLPPSREEMTKNQVSLSCAVKGFYPSDIAVEWESNGQPENNYKTTPPVLDSDGSFFLVSKLTVDKSRWQQGNVFSCSVMHEALHNHYTQKSLSLSP
light 1: not shown
heavy 2: not shown
light 2: B1 light 2
notes: also called MOG307//IC17; IC17//MOG307

Kd (human soluble IL-6R [1]): 5.21 nM | koff (human soluble IL-6R [1]): 0.00133 s⁻¹ | kon (human soluble IL-6R [1]): 255000 M⁻¹ s⁻¹ | Kd (mouse albumin): 14.3 nM | koff (mouse albumin): 0.00103 s⁻¹ | kon (mouse albumin): 71800 M⁻¹ s⁻¹ | Kd (human soluble IL-6R [2]): 3.6 nM
B3: ABD094(H)-H54//IC17 (bispecific antibody, human IgG1, kappa)
heavy 1: LAEAKEAANAELDSYGVSDFYKRLIDKAKTVEGVEALKDAILAALPQVQLQESGPGLVKPSETLSLTCAVSGYSISDDQAWSWVRQPPGEGLEWIGYISYSGITNYNPSLKGRVTISRDTSKNQFSLKLSSVTAADTAAYYCARSLARTTAMDYWGEGTLVTVSSASTKGPSVFPLAPSSKSTSGGTAALGCLVEDYFPEPVTVSWNSGALTSGVHTFPAVLQSSGLYSLSSVVTVPSSSLGTQTYICNVNHKPSNTKVDERVEPKSCDKTHTCPPCPAPELRRGPSVFLFPPKPKDTLMISRTPEVTCVVVDVSHEDPEVKFNWYVDGVEVHNAKTKPREEQYNSTYRVVSVLTVLHQDWLNGKEYKCKVSNKALPAPIEKTISKAKGQPREPQVCTLPPSREEMTKNQVSLSCAVKGFYPSDIAVEWESNGQPENNYKTTPPVLDSDGSFFLVSKLTVDKSRWQQGNVFSCSVMHEALHNHYTQKSLSLSP
light 1: B1 light 1
heavy 2: not shown
light 2: B1 light 2
